According to the RNAGym collection of RNA variant scans (doi:10.1073/pnas.2313332121):
Fewer inactive variants are shown than the library holds.

B1: TPR 5TU (parent)
chain: GGAUCUUCUCGAUCUAACAAAAAAGACAAAUCUGCCACAAAGCUUGAGAGCAUCUUCGGAUGCAGAGGCGGCAGCCUUCGGUGGCGCGAUAGCGCCAACGUUCUCAACUAUGACACGCAAAACGCGUGCUCCGUUGAAUGGAGUUUAUCAUG

Variants of: B1
Assay: polymerase ribozyme fitness, log enrichment relative to wild type (log ratio); higher = more active; in vitro selection for triplet polymerase activity
Method in brief: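 Mutant libraries were PCR-built and transcribed for each subunit of a heterodimeric triplet polymerase ribozyme and selected for one round in triplicate at −7 °C, frozen, before gel excision of extended constructs and streptavidin-bead capture. Input and output libraries were Illumina-sequenced, keeping genotypes with ≥10 input reads and ≥1 read per output. Fitness is a logarithmic ratio of genotype to wild-type enrichment, in base 2, using inverse-variance-weighted replicate averages.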

Row | Variant | polymerase ribozyme fitness (log ratio)
1 | C72U C87A A137C U139A | ≤ -4.2
2 | A60G U101A G141U A147C | -4.13
3 | C72A A147C | ≤ -4.2
4 | G70A C105A C123A | ≤ -4.2
5 | C72U G86A G100C C131A U135A | ≤ -4.2
6 | G71A C95U | -3.12
7 | C69G A73G | -2.59
8 | G65C G92A A137C G141C | ≤ -4.2
9 | G71U G80C C93U A97U C132A | ≤ -4.2
10 | U61A C118G | -1.89
11 | G68A G88A C116A A119U | -3.78
12 | G71C C79U A91C U135G | ≤ -4.2
13 | A64G C103G U148G | ≤ -4.2
14 | C63A C93U A98C | -1.62
15 | A64G G86A | -4.08
16 | U61A A64C G68U G86C | ≤ -4.2
17 | A73C A106U A110C | ≤ -4.2
18 | A60U C93U C125U | -2.48
19 | G67U C87U U104G C132G U144C U148G | ≤ -4.2
20 | U61G G117C A142C U146G | ≤ -4.2
21 | C72A C103G C118G U148G | ≤ -4.2

Row | Variant | polymerase ribozyme fitness (log ratio)
22 | C69A U102C | ≤ -4.2
23 | C63A G84A A121C A142U U145A A150C | ≤ -4.2
24 | A66U C85U U102C A107G G143C | ≤ -4.2
25 | G70A C87U | -3.05
26 | G62U C103U | -0.754
27 | G68A C96A C99U A110G U145C | ≤ -4.2
28 | A60U C99A G140U | ≤ -4.2
29 | U61C G81A | -2.36
30 | A64G C87A C105A U144G | ≤ -4.2
31 | A66C C96A A115C C123U G136C | ≤ -4.2
32 | G67A G83A | ≤ -4.2
33 | A60G C85A U104A A142U | -3.14
34 | G62U G68C A98G G124C G141A | ≤ -4.2
35 | U61A U77G C85U C125A | ≤ -4.2
36 | C63G G92A U145G | -2.07
37 | C69A U148A | -4.08
38 | A60G G83A | -1.4
39 | A60G G83C | -0.826
40 | G65A C131U | -0.0454
41 | A73C C87A | ≤ -4.2
42 | A66G A97U | ≤ -4.2

Row | Variant | polymerase ribozyme fitness (log ratio)
43 | U61A G83A | -2.9
44 | A66G C87A | ≤ -4.2
45 | A60C G84A A91G C116U | -4.11
46 | U61G C69U C93G G143A | ≤ -4.2
47 | C63G C125G U145C A150C | ≤ -4.2
48 | C69A A97G A98U U104A G124A | -2.14
49 | G68A G81U C96A | -3.57
50 | C63A U102C | -0.926
51 | G62A C76U | -1.26
52 | C63G C85U U145A | 0.338
53 | A64C G88C U90G U102G A119U A120U C149G | ≤ -4.2
54 | G62U G65A C103A | -3.94
55 | A60U U61A G84U G128A G140C U148C | ≤ -4.2
56 | G65A C96U | -1.03
57 | A64U C75U C85U G136C | ≤ -4.2
58 | A60G C93U C95A U145A | -1.82
59 | C63G G70A | -3.15
60 | U61A U109G | -2.11
61 | A64G G68U U144A | ≤ -4.2
62 | A60G U61G C93U | -2.26
63 | G68A A98U | -3.61

Row | Variant | polymerase ribozyme fitness (log ratio)
64 | U61A C149U | -1.63
65 | A60G C96A | -0.165
66 | G67U G74C A107U C123G | ≤ -4.2
67 | A60G C93U | -1.09
68 | A60G C93A | -2.81
69 | A64C C93U U102G | ≤ -4.2
70 | G62C G67C U134C A147G | ≤ -4.2
71 | G65C C93A A97U C108U U109C | ≤ -4.2
72 | U61A C99U | -2.69
73 | G68U C79G G84A C105U A147U | ≤ -4.2
74 | C63G G68U G71A U78G C85G G100A G141U | ≤ -4.2
75 | G70A U144C | -3.66
76 | U61G | -1.25
77 | U61A | -1.18
78 | U61C | -1.79
79 | C69U C95U U101G G152C | -3.5
80 | A66G G92C | -3.77
81 | U61A C75U | -1.92
82 | G65C | ≤ -4.2
83 | G65A | -1.04
84 | G65U | -3.1
